Data on six molecules can be found in US20100183623A1 (INHIBITEX, published 2010).

The target in experiment [1] is T1, SdrF N2N3 (361-679), His-tagged recombinant fragment (Staphylococcus epidermidis (K28 genomic …, UniProt Q9KI14 361-678)).
T1 construct: expressed in E. coli
T1 sequence: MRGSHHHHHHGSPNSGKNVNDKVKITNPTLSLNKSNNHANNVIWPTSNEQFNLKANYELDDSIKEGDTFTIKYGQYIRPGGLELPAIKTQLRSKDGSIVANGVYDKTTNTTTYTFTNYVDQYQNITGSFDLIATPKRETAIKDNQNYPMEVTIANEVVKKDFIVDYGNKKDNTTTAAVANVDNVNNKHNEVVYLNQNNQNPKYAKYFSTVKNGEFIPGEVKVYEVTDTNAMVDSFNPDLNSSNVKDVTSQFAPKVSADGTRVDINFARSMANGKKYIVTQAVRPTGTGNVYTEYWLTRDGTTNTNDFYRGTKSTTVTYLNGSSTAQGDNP
The experiment is described as follows: ELISA, plate coated with SdrF N2N3, hybridoma supernatant.

Experiment [2] deals with T2, SdrF N1N2N3 (52-679), His-tagged recombinant A domain of S. epidermidis SdrF (Staphylococcus epidermidis (K28 genomic …, UniProt Q9KI14 53-678)).
T2 construct: expressed in E. coli; also called SdrF A domain
T2 sequence: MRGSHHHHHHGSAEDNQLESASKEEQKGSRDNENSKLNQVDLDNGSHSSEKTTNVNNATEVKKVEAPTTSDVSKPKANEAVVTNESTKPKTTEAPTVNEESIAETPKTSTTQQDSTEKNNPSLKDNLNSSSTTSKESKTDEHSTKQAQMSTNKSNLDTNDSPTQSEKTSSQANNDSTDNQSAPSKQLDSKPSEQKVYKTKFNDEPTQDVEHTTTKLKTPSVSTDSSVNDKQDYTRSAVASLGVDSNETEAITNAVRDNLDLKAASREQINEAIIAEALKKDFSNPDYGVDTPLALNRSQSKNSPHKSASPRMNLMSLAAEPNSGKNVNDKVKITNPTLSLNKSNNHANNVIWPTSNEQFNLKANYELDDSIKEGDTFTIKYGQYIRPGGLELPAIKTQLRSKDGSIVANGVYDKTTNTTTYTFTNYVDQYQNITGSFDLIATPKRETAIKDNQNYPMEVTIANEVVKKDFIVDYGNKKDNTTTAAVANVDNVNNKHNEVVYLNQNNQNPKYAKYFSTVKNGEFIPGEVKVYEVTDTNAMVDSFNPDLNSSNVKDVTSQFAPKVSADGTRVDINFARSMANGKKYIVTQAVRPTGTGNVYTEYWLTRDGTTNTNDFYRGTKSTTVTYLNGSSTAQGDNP
The experiment is described as follows: Biacore 3000, mAb captured on anti-F(ab)2 chip, SdrF (N1N2N3) in flow. On the technique in general: SPR reads the build-up and loss of mass on a sensor chip optically.

The target in experiment [3] is T2, SdrF N1N2N3 (52-679), His-tagged …. The experiment is described as follows: ELISA, plate coated with SdrF N1N2N3, hybridoma supernatant. Background: ELISA stands for enzyme-linked immunosorbent assay.
Experiment [4] shares this target. The experiment is described as follows: Biacore, mAb captured via RAM-Fc, SdrF injected.
Experiment [5] has the same target. Description: Biacore 3000, ligand capture of mAb, SdrF (N1N2N3) in flow.
Experiment [6] has as its target T3, SdrF N3 (517-679), His-tagged recombinant fragment (Staphylococcus epidermidis (K28 genomic …, UniProt Q9KI14 517-678)).
T3 construct: expressed in E. coli
T3 sequence: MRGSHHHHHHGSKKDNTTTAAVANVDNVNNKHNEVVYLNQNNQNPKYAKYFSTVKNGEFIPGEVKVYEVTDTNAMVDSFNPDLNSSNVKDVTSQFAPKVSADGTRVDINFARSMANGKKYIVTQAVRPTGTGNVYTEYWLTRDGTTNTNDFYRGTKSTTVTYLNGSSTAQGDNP
Description: ELISA, plate coated with SdrF N3.

Experiment [7] concerns the target T4, SdrF N2 (361-517), His-tagged recombinant fragment (Staphylococcus epidermidis (K28 genomic …, UniProt Q8CMP4 361-517)).
T4 construct: expressed in E. coli
T4 sequence: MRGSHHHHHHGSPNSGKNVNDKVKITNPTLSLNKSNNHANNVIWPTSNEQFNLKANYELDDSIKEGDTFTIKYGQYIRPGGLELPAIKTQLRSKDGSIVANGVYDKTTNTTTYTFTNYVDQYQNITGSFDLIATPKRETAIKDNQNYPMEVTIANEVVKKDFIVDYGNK
Description: ELISA, plate coated with SdrF N2.

Residue numbers refer to the chain shown, from its start.

B1: murine anti-SdrF monoclonal antibody 108-1 (antibody, V domains shown)
VH: EVQLQQSGAELVKPGASVKLSCTASGFNIKDTYIHWVKQRPEQGLEWIGRIDPANGNTHYDSQFQGKATITADTSSNTAYLQLSSLTSDDTAVYYCTRRVGYAMDYWGQGTSVTVSS
VL: DIVMTQSHKFMSTSVGDRVIITCKASQDVNTALAWYQQKPGQSPKLLIYSASYRYTGVPDRFTGSGSGTDFTFTISSVQAEDLAVYYCQQHYSTPPYTFGGGTKLEIK
notes: Mouse hybridoma antibody (Balb/C, fusion F108)
For B1, the “ELISA OD405” value in experiment [1] was 0.99 OD405. In experiment [2], the Ka is 6.2e+08 M⁻¹; the Kd (as a rule, a measure of binding affinity in units of concentration) turned out to be 1610 pM; the koff – broadly, the first-order rate constant of dissociation – stood at 0.000134 s⁻¹; the kon (usually the rate constant with which the complex forms) amounted to 82900 M⁻¹ s⁻¹. In experiment [3], the “ELISA OD405” value is 0.89 OD405. Further, the “Biacore SdrF bound” value in experiment [4] came to 146. Moreover, in experiment [5], the Ka amounted to 6.2e+08 M⁻¹, the dissociation constant Kd turned out to be 1600 pM, the koff came out at 0.00013 s⁻¹ and the kon was 83000 M⁻¹ s⁻¹.

B2: Humanized 108-1 (antibody, V domains shown)
VH: B1 VH with E1Q, Q5V, L11V, T23K, E42G, S76T, N77S, T87R, D89E, S112T
VL: B1 VL with H8Q, I20T, D60S, T63S
notes: Humanized (veneered) variable regions spliced into plasmids with 'the appropriate light or heavy chain constant region', expressed in NSO cells
Take B2: in experiment [5], the Ka was 5.6e+08 M⁻¹, the Kd was determined as 1800 pM, the koff was 0.00017 s⁻¹ and the association rate constant (kon) is 94000 M⁻¹ s⁻¹.

B3: Humanized 110-15 (antibody, V domains shown)
VH: EVQLVESGGGLVQPGGSLKLSCAASGFAFSSYDMSWVRQTPEKRLEWVAYISSGGGITYYPDTVKGRFTISRDNSKNTLYVQMSSLRAEDTAVYYCTRHDRDSWFAYWGQGTLVTVSS
VL: EIVLTQSPGTMSASPGERGTMSCSASSSVRYMYWYRQKPGQSPRLLIYDTSNLASGVPARFSGSGSGTSYSLTISRMEAEDAATYYCQQWSSYPPTFGGGTKLEMK
notes: Humanized (veneered) variable regions with 'the appropriate light or heavy chain constant region', expressed in NSO cells; also called 110-15VL-Hu/110-15VH-Hu
As to B3, in experiment [5], the Ka turned out to be 1.4e+09 M⁻¹, the dissociation constant Kd was 740 pM, the off-rate (koff) amounted to 0.00013 s⁻¹ and the on-rate (kon) came out at 170000 M⁻¹ s⁻¹.

B4: murine anti-SdrF monoclonal antibody 108-36 (antibody, V domains shown)
VH: QVTLRESGPGILQPSQTLSLTCSFSGFSLNTSGMGVTWIRQPSGKGLEWLANIYWDDDKRYNPSLKSRLTISKANSRNQVFLKITSVDTADTATYYCTRPNYLGTVYWYFDVWGAGTMVTVSS
VL: QIVLTQSPAIMSASPGEKVTMTCSASSSVSYMYWYQQKPGSSPRVLIYDTSNLASGVPVRFSGSGSGTSYSLTISRMEAEDAATYYCQQWNGYPPTFGAGTKLEVK
notes: Mouse hybridoma antibody (fusion F108)
As to B4, the “ELISA OD405” value in experiment [1] was found to be 0.72 OD405. Moreover, the binding result in experiment [6] is given as “no binding”. In experiment [2], the Ka turned out to be 4.52e+09 M⁻¹, the Kd is 221 pM, the koff is 5.6e-05 s⁻¹ and the kon was determined as 232000 M⁻¹ s⁻¹. The “ELISA OD405” value in experiment [3] amounted to 0.77 OD405. Besides, the “Biacore SdrF bound” value in experiment [4] amounted to 146. In experiment [5], the Ka came out at 4.5e+09 M⁻¹, the equilibrium dissociation constant (Kd) is 220 pM, the off-rate (koff) came to 5.6e-05 s⁻¹ and the on-rate (kon) came to 230000 M⁻¹ s⁻¹.

B5: Humanized 108-36 (antibody, V domains shown)
VH: B4 VH with Q13K, S23T, T89P, A90V, A115Q
VL: B4 VL with Q1E, I10T, K18R, T22S, S41Q, V59S, R76S, A79P, A99G
modifications: N-linked carbohydrate chain on the asparagine at position 30 of the variable heavy chain
notes: Humanized (veneered) variable regions with 'the appropriate light or heavy chain constant region', expressed in NSO cells; also called Hu108-36
As to B5, in experiment [5], the Ka is 2.2e+09 M⁻¹, the dissociation constant Kd is 460 pM, the dissociation rate constant (koff) came to 6.3e-05 s⁻¹ and the kon was 140000 M⁻¹ s⁻¹.

B6: murine anti-SdrF monoclonal antibody 110-15 (antibody, V domains shown)
VH: B3 VH with Q13K, S75A, R87K, A88S, V93I, S118A
VL: B3 VL with E1Q, G9A, T10I, R18E, S22T, Q41S, A59V
notes: Mouse hybridoma antibody (fusion F110); also called Murine 110-15; 110-15VL-Mouse/110-15VH-Mouse
B6: the “ELISA OD405” value in experiment [1] was 0.7 OD405. Moreover, the binding result in experiment [7] was “no binding”. Moreover, in experiment [6], the binding result was “no binding”. In experiment [2], the Ka was found to be 1.29e+09 M⁻¹, the dissociation constant (Kd) is 774 pM, the koff is 0.000164 s⁻¹ and the kon was determined as 212000 M⁻¹ s⁻¹. Also, the “ELISA OD405” value in experiment [3] came out at 0.63 OD405. In experiment [4], the “Biacore SdrF bound” value was determined as 153. In addition, in experiment [5], the Ka was 1.3e+08 M⁻¹, the dissociation constant (Kd) amounted to 770 pM, the dissociation rate constant (koff) is 0.00016 s⁻¹ and the kon amounted to 210000 M⁻¹ s⁻¹.
